Tested on: Escherichia coli TOP10
Assay: shrunken log2 fold change of peptide-encoding DNA abundance (4.5 h post-induction vs induction); higher = less antimicrobial activity (less host growth inhibition)
Conditions: time post-induction: 4.5 h; library: site-saturation at positions 5, 18, 19, 20
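Also: peptides expressed intracellularly from a pBAD plasmid library in pooled LB shake-flask culture, induced with 0.3% L-arabinose, DNA abundance read by NGS, three biological replicates, DESeq2 with apeglm shrinkage.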

Sequence | shrunken log2 fold change
RRIRCRPPRLPRPRPRPYGNPRP | -0.277
RRIRCRPPRLPRPRPRPYHHPRP | -0.746
RRIRCRPPRLPRPRPRPYIYPRP | -0.945
RRIRCRPPRLPRPRPRPYKCPRP | -0.273
RRIRCRPPRLPRPRPRPYLPPRP | -1.2
RRIRCRPPRLPRPRPRPYLQPRP | -0.144
RRIRCRPPRLPRPRPRPYLTPRP | -0.459
RRIRCRPPRLPRPRPRPYPGPRP | -0.0268
RRIRCRPPRLPRPRPRPYQHPRP | -0.381
RRIRCRPPRLPRPRPRPYSVPRP | -0.0508
RRIRCRPPRLPRPRPRPYTTPRP | -0.97
RRIRCRPPRLPRPRPRPYTWPRP | -1.09
RRIRCRPPRLPRPRPRPYWGPRP | -0.427
RRIRCRPPRLPRPRPRPYYWPRP | -0.992
RRIRDRPPRLPRPRPRPACAPRP | 0.705
RRIRDRPPRLPRPRPRPACHPRP | 0.0454
RRIRDRPPRLPRPRPRPADYPRP | -0.0418
RRIRDRPPRLPRPRPRPAEVPRP | 0.46
RRIRDRPPRLPRPRPRPAEYPRP | -0.491
RRIRDRPPRLPRPRPRPAFIPRP | -0.115
RRIRDRPPRLPRPRPRPAHIPRP | -0.0312
RRIRDRPPRLPRPRPRPAKGPRP | -0.0222
RRIRDRPPRLPRPRPRPAKNPRP | -0.119
RRIRDRPPRLPRPRPRPAMFPRP | -0.228
RRIRDRPPRLPRPRPRPAMTPRP | 0.812

Sequence | shrunken log2 fold change
RRIRDRPPRLPRPRPRPAMYPRP | -0.0257
RRIRDRPPRLPRPRPRPANQPRP | 0.253
RRIRDRPPRLPRPRPRPAPYPRP | -0.352
RRIRDRPPRLPRPRPRPAQCPRP | 0.0665
RRIRDRPPRLPRPRPRPARDPRP | 0.724
RRIRDRPPRLPRPRPRPASQPRP | 0.0836
RRIRDRPPRLPRPRPRPATEPRP | 0.646
RRIRDRPPRLPRPRPRPCAPPRP | -0.0226
RRIRDRPPRLPRPRPRPCCLPRP | -0.146
RRIRDRPPRLPRPRPRPCDKPRP | -0.206
RRIRDRPPRLPRPRPRPCDSPRP | -0.0465
RRIRDRPPRLPRPRPRPCDTPRP | -0.157
RRIRDRPPRLPRPRPRPCEEPRP | -0.187
RRIRDRPPRLPRPRPRPCESPRP | -0.00192
RRIRDRPPRLPRPRPRPCFMPRP | 0.0118
RRIRDRPPRLPRPRPRPCGLPRP | 0.371
RRIRDRPPRLPRPRPRPCGVPRP | 0.0765
RRIRDRPPRLPRPRPRPCIDPRP | 0.0188
RRIRDRPPRLPRPRPRPCIYPRP | -0.0518
RRIRDRPPRLPRPRPRPCKTPRP | -0.0377
RRIRDRPPRLPRPRPRPCLCPRP | 0.0206
RRIRDRPPRLPRPRPRPCLQPRP | -0.0105
RRIRDRPPRLPRPRPRPCMRPRP | 0.311
RRIRDRPPRLPRPRPRPCNFPRP | -0.0419
RRIRDRPPRLPRPRPRPCNRPRP | -0.0148

Sequence | shrunken log2 fold change
RRIRDRPPRLPRPRPRPCRLPRP | 0.00469
RRIRDRPPRLPRPRPRPCSAPRP | 0.45
RRIRDRPPRLPRPRPRPCSFPRP | -0.0466
RRIRDRPPRLPRPRPRPCTDPRP | -0.00136
RRIRDRPPRLPRPRPRPCVKPRP | -0.161
RRIRDRPPRLPRPRPRPCVWPRP | 0.321
RRIRDRPPRLPRPRPRPDAMPRP | -0.107
RRIRDRPPRLPRPRPRPDCDPRP | 0.122
RRIRDRPPRLPRPRPRPDCMPRP | 0.781
RRIRDRPPRLPRPRPRPDCVPRP | 0.381
RRIRDRPPRLPRPRPRPDDAPRP | 0.365
RRIRDRPPRLPRPRPRPDFAPRP | 0.152
RRIRDRPPRLPRPRPRPDFIPRP | 0.0951
RRIRDRPPRLPRPRPRPDGLPRP | 0.107
RRIRDRPPRLPRPRPRPDGQPRP | 0.705
RRIRDRPPRLPRPRPRPDGSPRP | 0.0891
RRIRDRPPRLPRPRPRPDHWPRP | 0.0704
RRIRDRPPRLPRPRPRPDICPRP | -0.0418
RRIRDRPPRLPRPRPRPDLFPRP | 0.0296
RRIRDRPPRLPRPRPRPDMDPRP | 0.2
RRIRDRPPRLPRPRPRPDMWPRP | 0.0213
RRIRDRPPRLPRPRPRPDNAPRP | -0.0954
RRIRDRPPRLPRPRPRPDNFPRP | 0.0301
RRIRDRPPRLPRPRPRPDPQPRP | 0.209
RRIRDRPPRLPRPRPRPDRLPRP | 0.0401

Sequence | shrunken log2 fold change
RRIRDRPPRLPRPRPRPDTTPRP | 0.345
RRIRDRPPRLPRPRPRPDWAPRP | 0.534
RRIRDRPPRLPRPRPRPDWGPRP | 0.161
RRIRDRPPRLPRPRPRPDYIPRP | 0.0998
RRIRDRPPRLPRPRPRPDYPPRP | 0.00388
RRIRDRPPRLPRPRPRPECYPRP | -0.00335
RRIRDRPPRLPRPRPRPEDGPRP | 0.316
RRIRDRPPRLPRPRPRPEDNPRP | 1.31
RRIRDRPPRLPRPRPRPEFHPRP | 0.858
RRIRDRPPRLPRPRPRPEFSPRP | 0.221
RRIRDRPPRLPRPRPRPEGGPRP | 0.966
RRIRDRPPRLPRPRPRPEGKPRP | -0.0117
RRIRDRPPRLPRPRPRPEGMPRP | 0.896
RRIRDRPPRLPRPRPRPEGQPRP | 1.15
RRIRDRPPRLPRPRPRPEHSPRP | -0.027
RRIRDRPPRLPRPRPRPEILPRP | -0.101
RRIRDRPPRLPRPRPRPEKHPRP | 0.377
RRIRDRPPRLPRPRPRPEKTPRP | 0.0897
RRIRDRPPRLPRPRPRPELAPRP | 1.68
RRIRDRPPRLPRPRPRPELEPRP | 0.05
RRIRDRPPRLPRPRPRPEMFPRP | -0.0156
RRIRDRPPRLPRPRPRPENPPRP | 0.783
RRIRDRPPRLPRPRPRPENWPRP | 0.695
RRIRDRPPRLPRPRPRPEPCPRP | 0.064
RRIRDRPPRLPRPRPRPEPMPRP | 0.035

Sequence | shrunken log2 fold change
RRIRDRPPRLPRPRPRPERDPRP | 0.312
RRIRDRPPRLPRPRPRPESSPRP | 0.27
RRIRDRPPRLPRPRPRPETIPRP | 0.17
RRIRDRPPRLPRPRPRPEWLPRP | 0.382
RRIRDRPPRLPRPRPRPEYAPRP | 0.815
RRIRDRPPRLPRPRPRPEYSPRP | 0.0929
RRIRDRPPRLPRPRPRPFAGPRP | 0.0426
RRIRDRPPRLPRPRPRPFCDPRP | 0.167
RRIRDRPPRLPRPRPRPFFFPRP | 0.483
RRIRDRPPRLPRPRPRPFGFPRP | -0.0238
RRIRDRPPRLPRPRPRPFGWPRP | 0.903
RRIRDRPPRLPRPRPRPFHNPRP | -0.271
RRIRDRPPRLPRPRPRPFISPRP | -0.0503
RRIRDRPPRLPRPRPRPFKKPRP | -0.145
RRIRDRPPRLPRPRPRPFLCPRP | 0.0956
RRIRDRPPRLPRPRPRPFLTPRP | -0.0719
RRIRDRPPRLPRPRPRPFMCPRP | -0.0266
RRIRDRPPRLPRPRPRPFMHPRP | -0.148
RRIRDRPPRLPRPRPRPFMMPRP | -0.265
RRIRDRPPRLPRPRPRPFQWPRP | -0.156
RRIRDRPPRLPRPRPRPFREPRP | -0.376
RRIRDRPPRLPRPRPRPFRLPRP | -0.0192
RRIRDRPPRLPRPRPRPFRQPRP | -0.137
RRIRDRPPRLPRPRPRPFRYPRP | 0.0402
RRIRDRPPRLPRPRPRPFSPPRP | -0.158

Sequence | shrunken log2 fold change
RRIRDRPPRLPRPRPRPFSWPRP | 0.198
RRIRDRPPRLPRPRPRPFSYPRP | -0.22
RRIRDRPPRLPRPRPRPFTLPRP | -0.0329
RRIRDRPPRLPRPRPRPFTSPRP | -0.0273
RRIRDRPPRLPRPRPRPFVFPRP | 0.175
RRIRDRPPRLPRPRPRPFWHPRP | -0.166
RRIRDRPPRLPRPRPRPFWPPRP | 0.227
RRIRDRPPRLPRPRPRPGAWPRP | 4.01
RRIRDRPPRLPRPRPRPGCNPRP | 0.0955
RRIRDRPPRLPRPRPRPGCYPRP | 0.0592
RRIRDRPPRLPRPRPRPGDVPRP | 0.0601
RRIRDRPPRLPRPRPRPGDYPRP | 0.0583
RRIRDRPPRLPRPRPRPGEQPRP | 0.259
RRIRDRPPRLPRPRPRPGEVPRP | 0.247
RRIRDRPPRLPRPRPRPGGAPRP | 0.806
RRIRDRPPRLPRPRPRPGGWPRP | 0.975
RRIRDRPPRLPRPRPRPGHPPRP | 0.813
RRIRDRPPRLPRPRPRPGIGPRP | 0.76
RRIRDRPPRLPRPRPRPGIMPRP | 0.0786
RRIRDRPPRLPRPRPRPGKGPRP | 0.0189
RRIRDRPPRLPRPRPRPGLPPRP | 0.245
RRIRDRPPRLPRPRPRPGLRPRP | 0.277
RRIRDRPPRLPRPRPRPGMWPRP | 0.634
RRIRDRPPRLPRPRPRPGPPPRP | 0.733
RRIRDRPPRLPRPRPRPGRDPRP | 0.193
